For series [1], the target named is T1, BR-CC (GCN4 basic region with idealized leucine zipper) (Saccharomyces cerevisiae).
T1 chain: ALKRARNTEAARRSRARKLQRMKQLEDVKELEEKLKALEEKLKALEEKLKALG
Kind of series: EMSA; stimulated by pX. Particulars: protein: synthetic; tags: synthetic peptide; chain copies: 2; label: 32P. Background: In EMSA bound probe runs differently from free probe, usually more slowly.

Series [2] addresses ZTA minimal bZIP (Epstein-Barr virus, UniProt P03206 P03206:175-229). Nature of the series: EMSA; stimulated by pX. Particulars: chain copies: 2; label: 32P.
For series [3], the target named is GCN4 minimal bZIP (Saccharomyces cerevisiae, UniProt P03069 P03069:228-281). Kind of series: EMSA; enhanced by pX. Particulars: protein: synthetic; tags: synthetic peptide per text; chain copies: 2; label: 32P.
GCN4 minimal bZIP, sequence (P03069 228-281, one chain of several): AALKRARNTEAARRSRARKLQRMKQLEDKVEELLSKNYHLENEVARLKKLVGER
Series [4] addresses T2, ATF-2 (GST fusion) (UniProt P15336 P15336:144-505).
T2 sequence: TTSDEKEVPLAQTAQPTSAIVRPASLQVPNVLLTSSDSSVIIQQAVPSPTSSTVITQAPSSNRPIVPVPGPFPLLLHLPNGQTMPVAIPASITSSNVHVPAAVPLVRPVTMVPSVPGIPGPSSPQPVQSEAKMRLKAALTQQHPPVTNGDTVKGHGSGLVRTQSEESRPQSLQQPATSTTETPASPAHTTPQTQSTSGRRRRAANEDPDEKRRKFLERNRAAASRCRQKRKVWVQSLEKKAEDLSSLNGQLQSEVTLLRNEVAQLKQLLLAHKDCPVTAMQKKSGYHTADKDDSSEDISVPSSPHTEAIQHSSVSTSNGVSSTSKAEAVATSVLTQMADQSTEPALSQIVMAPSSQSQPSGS
Kind of series: EMSA; low binding without pX, greatly increased by pX. Particulars: tags: GST (pGEX-2T); chain copies: 2; label: 32P.

For series [5], the target named is T3, ATF-1 (GST fusion) (UniProt P18846 P18846:57-271).
T3 sequence: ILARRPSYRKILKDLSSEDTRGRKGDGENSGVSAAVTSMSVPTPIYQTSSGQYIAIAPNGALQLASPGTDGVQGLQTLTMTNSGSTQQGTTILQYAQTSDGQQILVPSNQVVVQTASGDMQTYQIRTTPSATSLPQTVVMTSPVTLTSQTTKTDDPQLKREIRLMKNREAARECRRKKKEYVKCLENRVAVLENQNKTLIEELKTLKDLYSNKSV
Nature of the series: EMSA; low binding without pX, greatly increased by pX; TFIIB or E. coli extract no effect. Particulars: tags: GST (pGEX-2T); chain copies: 2; label: 32P.

In series [6] the target is CREB (GST fusion) (UniProt P16220-1 P16220-1:23-341). Kind of series: EMSA; low binding without pX, greatly increased by 100 ng pX. Particulars: tags: GST (pGEX-2T); chain copies: 2; label: 32P.
CREB (GST fusion), sequence (P16220 other isoform, or with tags, fused parts or gaps): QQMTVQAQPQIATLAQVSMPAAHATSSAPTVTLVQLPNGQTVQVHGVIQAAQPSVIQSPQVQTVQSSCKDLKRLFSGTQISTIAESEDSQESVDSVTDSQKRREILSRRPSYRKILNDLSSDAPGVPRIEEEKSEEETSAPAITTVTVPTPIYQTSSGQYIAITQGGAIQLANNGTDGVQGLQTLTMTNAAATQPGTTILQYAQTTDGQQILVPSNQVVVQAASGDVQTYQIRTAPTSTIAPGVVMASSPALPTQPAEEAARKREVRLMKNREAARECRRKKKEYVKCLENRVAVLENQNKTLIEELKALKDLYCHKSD
Series [7] addresses pX (Hepatitis B virus, UniProt P03165 P03165:1-154). Nature of the series: EMSA; no detectable interaction of pX with DNA without transcription factor. Particulars: tags: His (pRSET-C); label: 32P.

This note sets out measurements from US6051373, “Methods for screening for inhibitors of the transcription-enhancing activity of the X protein of hepatitis B virus” (Scriptgen Pharmaceuticals, Inc.).

ZTA minimal bZIP, sequence (P03206 175-229, one chain of several): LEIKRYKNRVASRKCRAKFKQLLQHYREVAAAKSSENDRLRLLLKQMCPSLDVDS
pX, sequence (P03165 whole entry, one chain of several): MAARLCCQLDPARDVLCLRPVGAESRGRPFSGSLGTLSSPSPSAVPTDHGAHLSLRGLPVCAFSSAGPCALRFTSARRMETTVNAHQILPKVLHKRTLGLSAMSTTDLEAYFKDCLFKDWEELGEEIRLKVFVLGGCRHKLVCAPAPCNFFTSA

B1: collagenase TRE oligoduplex (dsDNA)
DNA 1: AGCTTTGACTCATCCCGGA
DNA 2: TCCGGGATGAGTCAAAGCT
For the molecule B1, the binding result in series [1], in series [2] and in series [3] was “binds” throughout.

B2: CRE core oligoduplex (dsDNA)
DNA 1: TCCTAAGTGACGTCAGTGGAA
DNA 2: TTCCACTGACGTCACTTAGGA
Take B2: the binding result in series [4] is reported as “binds”; in series [5], “binds”; in series [6] it was “binds”; in series [7], “no binding”.
